Results as given in patent publication US20210054078A1.
Numbering of substitutions follows the chain as printed.

B1: 1G1 scFv phage clone (scFv, V domains shown, part only)
VH: QVQLVESGGGLVQPGRSLRLSCAASGFTFDDYAMHWVRQAPGKGLEWVSGISWNSGSIGYADSVKGRFTISRDNAKNSLYLQMNSLRAEDTAVYYCAKPRDISSWLGMDVWGQGTTVTVSS
VL: DIQMTQSPSSVSASVGDRVTITCRASQDISSWLAWYQQKPGKAPKLLIYAASSLQSGVPSRFSGSGSGTDFTLTISSLQPEDSATYYCQQTNNFPYTFGQGTKLEIKR
modifications: scFv linker not given; phage display
B2: ME4 scFv phage clone (scFv, V domains shown, part only)
VH: QVQLVESGAEVKKPGSSVKVSCKASGGTFNNYAVSWVRQAPGQGLEWMGRIIPILGIANYAQTFQGRVTITADKSTTTAYMELSSLRSEDTAVYYCARSYSGYAEGAFDIWGQGTMVTVSS
VL: QFVLTQPPSVSGAPGQRVTISCTGSSSNIGAGYDVHWYQQLPGTAPKVLIYGNSDRPSGVPDRFSGSKSGTSASLAITGLQGEDKATYYCQSYDSRLSGPVFGTGTKVTVLG
modifications: scFv linker not given; phage display
B3: 1G1.D8 scFv phage clone (scFv, part only; not given: scFv linker, part only)
scFv, part: QVQLVESGGGLVQPGRSLRLSCAASGFTFDDYAMHWVRQAPGKGLEWVSGISWNSGSIGYADSVKGRFTISRDNAKNSLYLQMNSLRAEDTAVYYCAKPRDISSWLGMDVWGQGTTVTVSSDIQMTQSPSSVSASVGDRVTITCRASQDISSWLAWYQQKPGKAPKLLIYAASSLQSGVPSRFSGSGSGTDFTLTISSLQPEDSATYYCQQTTNFPYTFGQGTKLEIKR
B4: 1G1.E12 scFv phage clone (scFv, V domains shown, part only)
VH: B1 VH
VL: B1 VL with N92V, N93T
modifications: scFv linker not given
B5: ME4.A2 scFv phage clone (scFv, V domains shown, part only)
VH: B2 VH with Y100S, S101R, E105H
VL: B2 VL
modifications: scFv linker not given
B6: ME4.A11 scFv phage clone (scFv, V domains shown, part only)
VH: B2 VH with Y100R, S101G, E105H
VL: B2 VL
modifications: scFv linker not given
B7: ME4.A12 scFv phage clone (scFv, V domains shown, part only)
VH: B2 VH with Y100H, S101W, E105H
VL: B2 VL
modifications: scFv linker not given
B8: ME4.B10 scFv phage clone (scFv, V domains shown, part only)
VH: B2 VH with Y100A, S101R, E105H
VL: B2 VL
modifications: scFv linker not given
B9: ME4.B12 scFv phage clone (scFv, V domains shown, part only)
VH: B2 VH with Y100S, S101F, A104S, E105V
VL: B2 VL
modifications: scFv linker not given

Experiments:
[1] = target: human PD-L1 (soluble protein of the kinetic measurements) (human) (UniProt Q9NZQ7); test: dissociation rate constant of scFv phage clone, method not named
[2] = target: Mouse PD-L1-HisTag (#50010-M08H, Sino Biological Inc.) (mouse) (UniProt Q9EP73); test: ELISA, scFv phage supernatant on coated His-tag PD-L1, anti-M13-HRP
[3] = target: Human PD-L1-HisTag (#10084-H08H, Sino Biological Inc.) (human) (UniProt Q9NZQ7); test: as above
[4] = target: human PD-L1 on hPD-L1/CHO-K1 overexpressing cells (human) (UniProt Q9NZQ7); test: flow cytometry, scFv phage supernatant on hPD-L1/CHO-K1 cells
[5] = target: mouse PD-L1 (soluble protein of the kinetic measurements) (mouse) (UniProt Q9EP73); test: dissociation rate constant of scFv phage clone, method not named
Chain of mouse PD-L1 (soluble protein of the kinetic measurements) (mouse) (Q9EP73 19-238 limits assumed): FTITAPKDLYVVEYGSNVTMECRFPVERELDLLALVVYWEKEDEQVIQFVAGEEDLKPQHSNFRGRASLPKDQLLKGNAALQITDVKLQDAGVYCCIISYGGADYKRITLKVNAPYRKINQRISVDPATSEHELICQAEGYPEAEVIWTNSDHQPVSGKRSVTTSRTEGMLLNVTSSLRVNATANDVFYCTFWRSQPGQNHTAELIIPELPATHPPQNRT

Chain of human PD-L1 on hPD-L1/CHO-K1 overexpressing cells (human) (Q9NZQ7 19-290): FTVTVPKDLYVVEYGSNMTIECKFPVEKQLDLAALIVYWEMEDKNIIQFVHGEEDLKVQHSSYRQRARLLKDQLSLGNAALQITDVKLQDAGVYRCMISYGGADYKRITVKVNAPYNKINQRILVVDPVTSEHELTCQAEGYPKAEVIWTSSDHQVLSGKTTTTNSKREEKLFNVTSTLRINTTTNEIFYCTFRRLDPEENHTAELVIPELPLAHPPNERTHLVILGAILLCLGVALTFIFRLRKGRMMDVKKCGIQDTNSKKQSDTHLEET
Chain of human PD-L1 (soluble protein of the kinetic measurements) (human) (Q9NZQ7 19-238 limits assumed): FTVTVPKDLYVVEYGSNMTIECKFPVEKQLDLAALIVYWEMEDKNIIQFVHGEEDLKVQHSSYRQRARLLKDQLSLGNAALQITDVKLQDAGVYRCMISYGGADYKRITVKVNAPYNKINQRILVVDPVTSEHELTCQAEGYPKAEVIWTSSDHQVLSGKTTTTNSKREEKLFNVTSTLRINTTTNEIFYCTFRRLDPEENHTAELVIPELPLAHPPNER
Chain of Human PD-L1-HisTag (#10084-H08H, Sino Biological Inc.) (human) (Q9NZQ7 19-238 limits assumed): as above
Chain of Mouse PD-L1-HisTag (#50010-M08H, Sino Biological Inc.) (mouse) (Q9EP73 19-238 limits assumed, stated change not applied): as the sequence (Q9EP73 19-238 limits assumed) above

Row | Binder | koff [1] [s⁻¹] | koff [5] [s⁻¹] | other results
1 | B1 | 0.000152 |  | OD450-630 [2]: 0.35; OD450-630 [3]: 1.38; % Gated in M1 [4]: 99.4%; Geo Mean in M1 [4]: 184; Geo Mean, all events [4]: 181; Mean in M1 [4]: 248; Mean, all events [4]: 246
2 | B2 | 0.000186 | 0.000374 | OD450-630 [2]: 1.44; OD450-630 [3]: 1.66
3 | B3 | 0.000242 |  | 
4 | B4 | 0.000268 |  | 
5 | B5 | 0.000183 | 0.000852 | 
6 | B6 | 7.86e-05 | 0.000486 | 
7 | B7 | < 1e-07 | 0.00101 | 
8 | B8 | 0.00016 | 0.000467 | 
9 | B9 | 0.000177 | 0.000753 | 
